# Test results reported in a protein production outcome set (Wang et al. 2014).
# Assay: label from the status in PepcDB records
row,Sequence,protein production
1,MNTIIRYASLWGLCAALTLAQTPSKTPDEIKQILNNYSHKNLKLIDPPTSSLEATPSFLSSPKETATTINQEIAKYHEKSDKAALGLYELLKGATTNLSLQAQELSVKQAMKNHTIAKAMFLPTLNASYNFKNEARDTPEYKHYNTQQLQAQVTLNVFNGFSDVNNVKEKSATYRSNVANLEYSRQSVYLQVVQQYYEYFNNLARMIALQKKLEQIKTDIKRVTKLYDKGLTTIDDLQSLKAQGNLSEYDILDMQFALEQNRLTLEYLTNLSVKNLKKTTIDAPNLQLRERQDLVSLREQISAIRYQNKQLNYYPKIDVFDSWLFWIQKPAYATGRFGNFYPGQQNTAGVTATLNIFDDIGLSLQKQSIMLGQLANEKNLAYKKLEQEKDEQLYRKSLDIARAKIESSKASLDAANLSFANIKRKYDANLVDFTTYLRGLTTRFDAEVAYNLALNNYEVQKANYIFNSGHKIDDYVH,failed
2,MGHHHHHHSHGQLVRGKVCEYSTDGAYIDIGGKAPAFLPKREAALHAVLDLEAHLPKDEELEFLVIRDQNEDGQVTVSLRA,failed
3,MFIREEEQMKRMIITIGRQSGSSGRKVGELLAERLSLPLYGKAELQKIAEGTDDYEEVQAFYEEEPVNSLLYAIAMSQFEQEVGRIPFQRIRELASKESCIIIGRCAGHIFREDPEAVRVFIHADPKIRVQRIMEREGLSETKAKKFLEDTDSRRASFHKYYTKQEWGLAQDYELCLDSGVLGIEGTVEVLTEYLRFRGFLGNE,failed
4,MSEPKKHKDAAVDDRAVQPSRRNFLKFGASGIAAATLSTWIPSDGMLQAAPVAPVLPVVEDRDAPAAGEHRIQLKVNGQVHTLNVPANAVLLDVLRDRLQLTGTKKGCDHGQCGACTLLVNGVAINSCLSIAVQHQGDSITTIEGLAENGKLHPVQEAFWEHDAYQCGYCTSGQIMSAVAILKDPNLGSDDASVREAMSGNICRCGAYKNILSAVQSARSKMGAV,failed
5,MADRPIEIVDRQNVLTVHLPGTYTVMYDARYCYVSYIPVSETVAEFTLTGFKYPLTNCHISRGSTLCISNELIQSSGTFSFSEGILMMIRSSDSLEHHHHHH,failed
6,MARSKVKNLLLLKQIHSAVSQIKKGKLDKALETLDKAETSARQSKSTDALYYILFTRGGILYSAKEYDQALEAYEKALEAGSDLLKTDPENADYQHYMGTTLSNTGNLLKKKSEIDKADEYYSQARKIYFDLIKKDPQNAVYQSYAGENLNNYGELLMESGSLEKACEILREAIEIYEKLYKEKPDNLGYQAELSVALSQLGGCLKHQVPEESGAAKEKLEKALELQESLLDQQPENEKVKEAIALTEERLKGL,failed
7,MRENSTKPPQPHISEPADVAESRFISVAIPTFRRPDTIRRAIDSVLHQDFSNWELIVSDDEGPDGQTWAMLTDYARADPRIRIVENRRGRGQVENTNNVMLACRGSWIKLLHDDDWLAPKALGTFAQVAQQYPSAAFITCATNRVEDDRVKLRSARPGKKHVTVCSSQQTLKDLYLVRTTRSFGIIPSSLLVNSIVVQNGCLMRTYKSITAGVDQLFFIDLARHGDMVMIEDGLIFYDATNHSSVTASTTFDDVDRETIDLKHLTWSLIEDKHELPDPETIAGALQVARLRSRFRHQPWGSTIRHALQIFHPSVTKAVNQDIFARVQAVLRRRLRRTNW,failed
8,MSLSEIKHWVFDMDGTLTIAVHDFAAIREALSIPAEDDILTHLAALPADESAAKHAWLLEHERDLAQGSRPAPGAVELVRELAGRGYRLGILTRNARELAHVTLEAIGLADCFAEADVLGRDEAPPKPHPGGLLKLAEAWDVSPSRMVMVGDYRFDLDCGRAAGTRTVLVNLPDNPWPELTDWHARDCAQLRDLLSA,not failed
9,MKALHFGAGNIGRGFIGKLLADAGIQLTFADVNQVVLDALNARHSYQVHVVGETEQVDTVSGVDAVSSIGDDVVDLIAQVDLVTTAVGPVVLERIAPAIAKGLVKRKEQGNESPLNIIACENMVRGTTQLKGHVMNALPEDAKAWVEEHVGFVDSAVDRIVPPSASATNDPLEVTVETFSEWIVDKTQFKGALPNIPGMELTDNLMAFVERKLFTLNTGHAITAYLGKLAGHQTIRDAILDEKIRAVVKGAMEESGAVLIKRYGFDADKHAAYIQKILGRFENPYLKDDVERVGRQPLRKLSAGDRLIKPLLGTLEYSLPHKNLIQGIAGAMHFRSEDDPQAQELAALIADKGPQAALAQISDLDANSEVVSEAVTAYKAMQ,failed
10,MYEVELKGYANDEIFEKVRETFEFMRKEIHEDIYYQHPCRDFSKTDEALRIRIKRFNGHNEVFLTYKGPKIDEKSKTRLEIEVEIQEDVDKYFELLDRLGFKEVLKVVKTREKYYVEKGVTITLDEVEGLGKFIEIETLVKEKDEIPEAVEKLEKILRELGVEKFERRSYLELLLEKRTELNI,not failed
11,MRVLKFGGSSLADADRFLRAADIIANNAQQEEVAVVLSAPGKTTNKLVAVIEGALRNGEAELQINELEESFKTLFADIQAVLPNLEGAAFDNQVKTSLSQLRQFVHGINLLGMCPNNVNAR,failed
12,MKSKGRNRLLSLIICICIAFAFSSCVKNDLPYPVVRLSITGFEVNGQIGSAVINNEERTVTVDLLDSVDLKKVIVTRFDYSEEANTDLKVNTTIDLSSPKEVVLSLYQDYRWKIIANQTVERVFSVKNQVGGAVIDEKARQAIVYVNKNTMLNKITVKDLKLGPISSTVSPDFITLKDFTQEQKVNVTFKGKTEEWSLYAFITDKVVFTNSADGWTNVAWLYGEGQEDVVNGFEIREASSEEWTRVDQDIVVQNGVNFYVCVPHLKADTEYVCRALVDGTEDRGEEITFRTTAAIPLTGGTFDNWNQSGKVWNPWGSNETPFWDTGNQGATTLGDSNSVPTEDIWSGKTTGMAAKLESKFVGVGSAGKLAAGNLFVGKYVATDGTNGILNFGQSFSAYPTHLKGYYKYQPGVIDNSSIEYNYLKGRTDTCSIYIAIGDWDSPIEIRTKPSNRKLFDKNDKHVIAYAEFTSGTPVAVYKEFDLKLEYRATNRKPTYIVLVCSASKYGDFFTGASGSVLYVDEFSLEYDYDN,failed
13,MIRRLLRMVRGRTGQRLPDGGIQQDEASKIETAGDSDAREQRAADSDTTREMGTDTGTGLSTGRFVDENVRLLLNGLSQPTFVLDAEGEVVAWNEALAELTGATRDEAVGHDHASEMFYPDGRRAKTLADKVLEHPETVHEEYDVELEAPEMGRVADTSTMLDQYGDEKHIYFAATPQYRDGELVGVVETVIDRTEEVERRLAIERLVGTLGSTLESLRSGELDARAELEDEHAAALDDELLDVVDALNAFAEEFQTLSGRVEQQADRLDDAVDRVVEAAAEISDAVGEQNELVDDAVSEMQTFSAQMEEVAATAQDVDEAASDAKETAEHGLETGQDAREAAKEVTDISEELVDDITALQARMDDIESVVEVVSDVADQTNILALNANIEAARADESGEGFAVVADEVKSLADETQSHTDDITDSIEKLREQTDRTVSAAMTSSERVDRADQRIQEMFDAFEDIADAVEAAADGIAEVAQANDDQAASIEEVTATLETVREHSERAETAAEDVESAATSQAESIDALIKRVERLREGTADAADAA,failed
14,MGNGLAKCLIDGDTETFWHAKWQGGSDPLPYDIVIDMKQNIQIAQVELLPRGRGSNNPIKVVEFAASEDNVNWTPIGRFGFTNQDAALEYYVKSIKARYIRLTIPDDGGNSTVAAIRELDVKGTIINLEHHHHHH,failed
15,MKGWKRNLYILVVCQFLVVSAMTMIIPFLPLYLQELGVTDPSEVSLWAGIIFAANFLTAFLFSPLWSRLADRYGRKMMILRSGFGMALIIGLTGFAQGPLSLLCLRLLNGVISGFIPASIGLVATNTPKEKAGYALGFLQAGAVSGGICGPLIGGIMAQAFGYRMIFFLTGLCIFIAALVVLLFVNEQFTPNPKEEKTNTWGEFKKITAIRPIFSLYVVVFLIQFAVMGVNPLISLFVEELVSGVNVALFAGLAISATGFANMLSSMQLGKLSDKAGAHHVLFFCLLGTVIFMIPQAFVQQLWQLIVLRFFVGLSLGGLLPAANALVRMHAPKGMESRTYGFSTSALYLGNMVGPTVGGAVVATVGIRGLFLISAFTLLLTVWIVKGKVMPASDKQFRYEQNERKIASS,failed
16,MTTGDGRSRLLAAATRLIRTQGFAATSVEAICREAGVTKGAFFHHFPSKEALGVAAAEAWSDVTGRLFAEAPYHRPADPLDRVLAYIDFRRALVAGEIADYTCLVGTLVQEAYGSDPIRAACGASILGHAGTLEADMAAAAEARGVADVDPASLARHTQAVLQGAFILAKAGGGAAAVEEALDHLKRYLRLLFANPGASGA,failed
17,MEYKPMPYPIIDSHCHLDFPKFNPDREEAIQRARKAGVVGMVNSGISLKGNRISLELAEKNEDIHAALGLSPDIGREGSDKDINAILAQIEANAGKAVAIGEAGLDFQDCKTDEERRRQTASFKKVIELAKNLEKPLVVHARMAEAEVLELARDVDTVIYHCYSGSVETMKEIVDAGYYISLATLVCFSEHHQTLAAEVPPENLLLETDSPFLSPRRGRNEPAFIVDSIPVVAEYKEMEPAEIAKFATENARRVFKILEHHHHHH,failed
18,QAVPCRAPKVGRLIYTAGGYFRQSLSYLEAYNPSNGSWLRLADLQVPRSGLAGCVVGGLLYAVGGRNNSPDGNTDSSALDCYNPMTNQWSPCASMSVPRNRIGVGVIDGHIYAVGGSHGCIHHSSVERYEPERDEWHLVAPMLTRRIGVGVAVLNRLLYAVGGFDGTNRLNSAECYYPERNEWRMITPMNTIRSGAGVCVLHNCIYAAGGYDGQDQLNSVERYDVETETWTFVAPMRHRSALGITVHQGKIYVLGGYDGHTFLDSVECYDPDSDTWSEVTRMTSGRSGVGVAVTMEPCRKQIDQQNCTC,not failed
19,MRVTYWRDESLQKNDRSHIKAYALMSGILAQLVGSILVGIFGGQWIDNKVGTFPLFLIIGLLLGLGTGVYAMIRLIRHYYSGEQ,failed
20,MQRLKTVFILFIAFLFFSCSGKTNEQAFFKELSKIDLQIAEGYQAKALKSLKRLQKKAVNSTNYVSIVKRQLKLNSIPDALISLQTGIKKIPDSPELSALLTSILIDSGKPAEALPYCEKLKDTPYASLGAEASILSDIALNSFNSDFSLLKAAYDKTENQVFLKNAAIVLAAKGRLREASNLRYNIPNDVAPEHPFFWSCIVYDLGVFDSIFGDLYFSLVYADKDGGEGKTAENARLHLMLAADAAYGQGDTERARAFWQAAADRSPEASPIVFYDLALTAPDEKERVDLLIECIDLYPDFYPVIARYVREDIALRELNSQDELSAYLESKGFYSIKMEETYFTSPKMTYKPEDLLARAMKNPNFDQRFILEEFRYNQITDKTYASKARGKADMWKILEKYGKESIIREYAKWYFAQSGDFNACLSVSEIGKRYEDSFYAGINSALSGDFENAVSSFAASAQVSAYAYASTVNSAYMYYMSGKTSEAVDTYSLAASMTQDKKRQSMLHYEIASIFYERKAYDRAISVLGYALELNPKNYQAASLLKKLKEFN,failed
21,MAERINPVVKAVLEWGPIAAFFLGYVKLKDETFTVAGTDYQGFIIVTAAFIPLMVICTGLLWWLSGKLSKMQVATVVLVVVFGGLSVWLNDDRFFKMKPTMIYLLFGVLLGIGLLRGQSWLRLVLEEAIPLQDEGWMILTRRVMAFFFALAIANEAVWRLMSTDAWVNFKTFGLPLAIFVFFMTQSGLFKRYNPERKDEA,not failed
22,MALHSSSDQYGSVAVTIHWLTAVLIVIALLTGFRAAAAEDVTTEAALLRVHLPAAALVLVLTVVRVVWWLGIDDKPEPIDGAPRSQQLIAGTVHLLFYVVVFGMIASGIGMMLASGAAPAIFSRDVPALPEFWHYRPRIPHGLGARLLVLLLIAHLAAALYHHLRGDRVFRRMWFGRNPKS,failed
23,SWNQAPKLHYCLDYDCQKAELFVTRLEAVTSNHDGGCDCYVQGSVANRTGSVEAQTALKKRQLHTTWEEGLVLPLAEEELPTATLTLTLRTCDRFSRHSVAGELRLGLDGTSVPLGAAQWGELKT,not failed
24,MNRTARRDGTPEKPRRGSQGGSRGDYGKPKRSHAKPQSANSGRPIKQRKQRDSEMLISNARPARHQHVGRREAGDGSTEG,failed
